# Results from patent US11473061B2, “Systems and methods for growth of intestinal cells in microfluidic devices” (Cedars-Sinai Medical Center, priority 2016, dated 2022).
# B1: IFNgamma: inflammatory cytokine interferon-gamma (protein, UniProt P01579 24-161, looked up)
# Interferon gamma: QDPYVKEAENLKKYFNAGHSDVADNGTLFLGILKNWKEESDRKIMQSQIVSFYFKLFKNFKDDQSIQKSVETIKEDMNVKFFNSNKKKRDDFEKLTNYSVTDLNVQRKAIHELIQVMAELSPAAKTGKRKRSQMLFRG
# Columns and labels:
# iHTNs = test: Seahorse mitochondrial stress test in iHTNs; format: cell-based, human; details: low-dose EDC treatment
# Procedure: (§2) The Seahorse XF^e24 Extracellular Flux Analyzer (Seahorse Biosciences) was used to perform mitochondrial stress tests and obtain real-time measurements of oxygen consumption rate (OCR) in cells. iFGEs and iHTNS treated with or without EDCs were seeded in a 24-well Seahorse culture plate at a density of 10,000-15,000 cells/well. For analysis of OCR, cells were reconstituted in Seahorse base medium and were allowed to settle for 1 hour at 37° C. in non-CO2 incubator before measurements. Chemical reagents (Sigma) were used at final concentrations as follows: 1 μM Oligomycin—an ATP synthase inhibitor, 1 μM (FCCP) carbonyl cyanide 4-(trifluoromethoxy)phenylhydrazone—an uncoupling agent, and a mixture of 0.50 μM antimycin A—a cytochrome C reductase inhibitor and 0.5 μM rotenone—a complex I inhibitor. Results were normalized to protein concentration determined by BCA assay (Thermo Scientific).
# iFGEs = test: Seahorse mitochondrial stress test in iFGEs; format: cell-based, human; details: low-dose EDC treatment
# Procedure: as §2
# hindgut intestinal cells = test: TEER of hindgut intestinal cells grown in transwell; format: cell-based, human; details: for TEER / transepithelial resistance: transwell, compared to control
# Text: FIG. 76. Depiction of exemplary transwell apparatus, including deposit of cells on a membrane and measurement of electrical properties via electrodes spanning both sides of the chamber.
# FIG. 79. TEER measurement of hindgut intestinal cells growth in transwell.
# FIG. 81. Another depiction of IFNγ responsiveness for cells grown in a transwell system.
# [1] = tested on: human intestinal epithelial cells derived from IPSCs; test: Transepithelial electrical resistance (TEER) in microfluidic chips; format: cell-based; details: 10 ng/ml of IFNgamma, basal administration, over time
# Procedure: (§1) Human intestinal epithelial cells derived from IPSCs were treated with 10 ng/ml of IFNgamma. The basal administration of IFNg leads to a decrease in transepithelial resistance and an increase in the efflux of dextran FITC in human intestinal epithelial cells derived from IPSCs. Basically this means that the intestinal epithelium is more permeable in response to this cytokine.
# [2] = tested on: human intestinal epithelial cells derived from IPSCs; test: Dextran FITC permeability of iPSC-derived intestinal epithelium; format: cell-based; details: for basal accumulation of FITC dextran: after addition to the apical layer; for permeability co-efficient (FITC dextran added to the apical channel): microfluidic chips
# Procedure: as §1
# Caco2 cells = test: IFNgamma response of Caco-2 cells on chips; format: cell-based, human
# [3] = tested on: STAT1 and IFNgamma responsive genes; test: IFNgamma response of iPSC-derived intestinal cells in small microfluidic device; format: cell-based, human; details: IFNgamma administered to the lower channel
# Procedure: In one embodiment, iPSCs were directed to form HIOs and were subsequently dissociated to a single cell suspension. These cells were then seeded into a small microfluidic device (SMD) which is composed of two chambers separated by a porous flexible membrane. See, FIG. 40.
# [4] = human intestinal epithelial cells derived from IPSCs
molecule,measurement,setting,value
"O=C(O)C(F)(F)C(F)(F)C(F)(F)C(F)(F)C(F)(F)C(F)(F)C(F)(F)F [PFOA, perfluorooctanoic acid]",effect on spare respiratory capacity,iHTNs,did not show any effect
same,effect on spare respiratory capacity,iFGEs,did not show any effect
tributyltin [TBT],effect on spare respiratory capacity,iHTNs,significant impairment
TNFalpha,intestinal permeability,hindgut intestinal cells; transwell system,does not elicit any change
same,transepithelial electrical resistance (TEER),[1]; n=4,increased TEER over time comparable to controls
same,basal accumulation of FITC dextran,[2]; [4],comparable
same,intestinal permeability,"[2]; human intestinal epithelial cells derived from IPSCs, microfluidic cultures",does not elicit any change
same,permeability co-efficient (FITC dextran added to the apical channel),[2],comparable
B1,genes associated with intestinal epithelial subtypes,Caco2 cells; Caco2 cells,no corresponding upregulation
same,response to IFN-gamma (relative expression of gene markers),Caco2 cells; Caco-2 epithelial cells grown on chips vs enteroids grown on chips,do not show the same response
same,TEER / transepithelial resistance,hindgut intestinal cells,decrease
same,TEER / transepithelial resistance,hindgut intestinal cells; listed as IFNγ,increase
same,"IFNgamma responsive genes (IDO1, GBP4 and/or GBP5)",[3],significant upregulation
same,phospholipase A2 group 2A and Muc4 expression,[3],upregulated
same,phosphorylation of STAT1,[3],phosphorylation
same,transepithelial electrical resistance (TEER),[1]; n=4,loss
same,transepithelial electrical resistance (TEER),"[1]; n=4, listed as IFNg",decrease
same,efflux of dextran FITC,[2]; [4],increase
same,basal accumulation of FITC dextran,"[2]; human intestinal epithelial cells derived from IPSCs, listed as IFNγ",basal accumulation
same,permeability co-efficient (FITC dextran added to the apical channel),[2],increase
